In the supplement of paper PMC10567573:

B1: GAGE1 (parent)
chain: QPPEMIGPMRPEQFSDEVEPATPE
B2: KLHL14 (parent)
chain: YVIGGRNETGYLSSVECYNLETNE

Variants of: B1
Test: protein stability index of a GFP-peptide fusion (GPS, HEK-293T) (PSI 1-6); higher = more stable
Settings: c terminus: a fixed tail appended
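Further: lentivirally expressed fusions sorted by FACS into six bins by GFP to DsRed ratio, PSI derived from sequencing read proportions per bin multiplied by bin number.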

Row | Variant | protein stability index
1 | QPPEMIGPMRPEQFSDEVEPATKE | 5.1
2 | QPPEMIGPMRPEQFSDEVEPATLE | 4.9
3 | QPPEMIGPMRPEQFSDEVEPATME | 5.05
4 | QPPEMIGPMRPEQFSDEVEPATNE | 5.26
5 | QPPEMIGPMRPEQFSDEVEPATQE | 5.16
6 | QPPEMIGPMRPEQFSDEVEPATRE | 5.3
7 | QPPEMIGPMRPEQFSDEVEPATSE | 5.14
8 | QPPEMIGPMRPEQFSDEVEPATTE | 4.81
9 | QPPEMIGPMRPEQFSDEVEPATVE | 4.5
10 | QPPEMIGPMRPEQFSDEVEPATWE | 4.41
11 | QPPEMIGPMRPEQFSDEVEPATYE | 4.4
12 | QPPEMIGPMRPEQFSDEVEPATPA | 4.99
13 | QPPEMIGPMRPEQFSDEVEPATPC | 4.6
14 | QPPEMIGPMRPEQFSDEVEPATPD | 4.51
15 | QPPEMIGPMRPEQFSDEVEPATPF | 4.83
16 | QPPEMIGPMRPEQFSDEVEPATPG | 4.67
17 | QPPEMIGPMRPEQFSDEVEPATPH | 4.62
18 | QPPEMIGPMRPEQFSDEVEPATPI | 4.56
19 | QPPEMIGPMRPEQFSDEVEPATPK | 4.68
20 | QPPEMIGPMRPEQFSDEVEPATPL | 4.09
21 | QPPEMIGPMRPEQFSDEVEPATPM | 4.37
22 | QPPEMIGPMRPEQFSDEVEPATPN | 5.18
23 | QPPEMIGPMRPEQFSDEVEPATPP | 4.65
24 | QPPEMIGPMRPEQFSDEVEPATPQ | 4.61
25 | QPPEMIGPMRPEQFSDEVEPATPR | 4.27
26 | QPPEMIGPMRPEQFSDEVEPATPS | 4.65
27 | QPPEMIGPMRPEQFSDEVEPATPT | 4.98
28 | QPPEMIGPMRPEQFSDEVEPATPV | 4.45
29 | QPPEMIGPMRPEQFSDEVEPATPW | 4.16
30 | QPPEMIGPMRPEQFSDEVEPATPY | 4.57

Variants of: B2
Test: as above
Settings: c terminus: a fixed tail appended

Row | Variant | protein stability index
31 | AVIGGRNETGYLSSVECYNLETNE | 4.43
32 | CVIGGRNETGYLSSVECYNLETNE | 3.48
33 | DVIGGRNETGYLSSVECYNLETNE | 4.64
34 | EVIGGRNETGYLSSVECYNLETNE | 4.45
35 | FVIGGRNETGYLSSVECYNLETNE | 2.19
36 | GVIGGRNETGYLSSVECYNLETNE | 4.99
37 | HVIGGRNETGYLSSVECYNLETNE | 4.61
38 | IVIGGRNETGYLSSVECYNLETNE | 2.06
39 | KVIGGRNETGYLSSVECYNLETNE | 4.12
40 | LVIGGRNETGYLSSVECYNLETNE | 2.96
41 | MVIGGRNETGYLSSVECYNLETNE | 3.55
42 | NVIGGRNETGYLSSVECYNLETNE | 4.25
43 | PVIGGRNETGYLSSVECYNLETNE | 4.82
44 | QVIGGRNETGYLSSVECYNLETNE | 4.68
45 | RVIGGRNETGYLSSVECYNLETNE | 4.39
46 | SVIGGRNETGYLSSVECYNLETNE | 4.63
47 | TVIGGRNETGYLSSVECYNLETNE | 4.71
48 | VVIGGRNETGYLSSVECYNLETNE | 3.2
49 | WVIGGRNETGYLSSVECYNLETNE | 2.87
50 | YAIGGRNETGYLSSVECYNLETNE | 3.08
51 | YCIGGRNETGYLSSVECYNLETNE | 2.87
52 | YDIGGRNETGYLSSVECYNLETNE | 4.57

Row | Variant | protein stability index
53 | YEIGGRNETGYLSSVECYNLETNE | 4.59
54 | YFIGGRNETGYLSSVECYNLETNE | 3.32
55 | YGIGGRNETGYLSSVECYNLETNE | 4
56 | YHIGGRNETGYLSSVECYNLETNE | 2.15
57 | YIIGGRNETGYLSSVECYNLETNE | 2.14
58 | YKIGGRNETGYLSSVECYNLETNE | 3.91
59 | YLIGGRNETGYLSSVECYNLETNE | 3.33
60 | YMIGGRNETGYLSSVECYNLETNE | 3.87
61 | YNIGGRNETGYLSSVECYNLETNE | 4.24
62 | YPIGGRNETGYLSSVECYNLETNE | 3.9
63 | YQIGGRNETGYLSSVECYNLETNE | 2.7
64 | YRIGGRNETGYLSSVECYNLETNE | 3.4
65 | YSIGGRNETGYLSSVECYNLETNE | 3.89
66 | YTIGGRNETGYLSSVECYNLETNE | 3.5
67 | YWIGGRNETGYLSSVECYNLETNE | 2.44
68 | YYIGGRNETGYLSSVECYNLETNE | 3.4
69 | YVAGGRNETGYLSSVECYNLETNE | 3.4
70 | YVCGGRNETGYLSSVECYNLETNE | 1.66
71 | YVDGGRNETGYLSSVECYNLETNE | 2.39
72 | YVEGGRNETGYLSSVECYNLETNE | 2.64
73 | YVFGGRNETGYLSSVECYNLETNE | 1.76
74 | YVGGGRNETGYLSSVECYNLETNE | 2.4

Row | Variant | protein stability index
75 | YVHGGRNETGYLSSVECYNLETNE | 1.83
76 | YVKGGRNETGYLSSVECYNLETNE | 1.58
77 | YVLGGRNETGYLSSVECYNLETNE | 1.84
78 | YVMGGRNETGYLSSVECYNLETNE | 2.1
79 | YVNGGRNETGYLSSVECYNLETNE | 1.81
80 | YVPGGRNETGYLSSVECYNLETNE | 2.65
81 | YVQGGRNETGYLSSVECYNLETNE | 2.06
82 | YVRGGRNETGYLSSVECYNLETNE | 1.49
83 | YVSGGRNETGYLSSVECYNLETNE | 1.61
84 | YVTGGRNETGYLSSVECYNLETNE | 2.18
85 | YVVGGRNETGYLSSVECYNLETNE | 2.24
86 | YVWGGRNETGYLSSVECYNLETNE | 1.02
87 | YVYGGRNETGYLSSVECYNLETNE | 1.3
88 | YVIAGRNETGYLSSVECYNLETNE | 1.77
89 | YVICGRNETGYLSSVECYNLETNE | 1.75
90 | YVIDGRNETGYLSSVECYNLETNE | 1.89
91 | YVIEGRNETGYLSSVECYNLETNE | 2.11
92 | YVIFGRNETGYLSSVECYNLETNE | 1.31
93 | YVIHGRNETGYLSSVECYNLETNE | 2.4
94 | YVIIGRNETGYLSSVECYNLETNE | 2.1
